Data as given in PMC9482650, “Quantitative fragmentomics allow affinity mapping of interactomes” (Nature Communications, 2022).

Each binder was assayed against FRMPD2_3, Q68DX3 (assay: holdup assay). Settings: plain residues with an end cap or a label only (N-terminal biotin on a linker: ado-ado).
Chain of FRMPD2_3, Q68DX3 (Q68DX3 1073-1166): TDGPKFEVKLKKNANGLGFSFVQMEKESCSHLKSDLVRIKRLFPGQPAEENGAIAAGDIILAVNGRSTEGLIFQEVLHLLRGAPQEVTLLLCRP
Parameters: key: below the threshold = too weak to quantify, mostly under pKd 3.1 to 4
In the case of KKAPTNEFYA [SDC4, P31431], the pKd is reported as “below the threshold”.
In the case of TKGPRGPTRV [SAPCD1, Q5SSQ6], the pKd is reported as “below the threshold”.

Each binder was assayed against T1, DLG3_1, Q92796 (assay: holdup assay). Settings: plain residues with an end cap or a label only (N-terminal biotin on a linker: ado-ado).
T1 sequence (Q92796 125-227, limits assumed, looked up): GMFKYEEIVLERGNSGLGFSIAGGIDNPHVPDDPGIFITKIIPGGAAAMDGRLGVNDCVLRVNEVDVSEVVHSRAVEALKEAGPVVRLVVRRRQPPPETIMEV
Parameters: key: below the threshold = too weak to quantify, mostly under pKd 3.1 to 4
In the case of KKAPTNEFYA [SDC4, P31431], the pKd is reported as “below the threshold”.
TKGPRGPTRV [SAPCD1, Q5SSQ6] was tested, and the pKd was 3.96.

What follows are binders tested against NOS1, P29475 (assay: holdup assay). Settings: plain residues with an end cap or a label only (N-terminal biotin on a linker: ado-ado).
Chain of NOS1, P29475 (P29475 9-101): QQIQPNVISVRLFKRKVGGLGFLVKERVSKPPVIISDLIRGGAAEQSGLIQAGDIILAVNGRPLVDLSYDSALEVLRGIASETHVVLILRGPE
Parameters: key: below the threshold = too weak to quantify, mostly under pKd 3.1 to 4
In the case of KKAPTNEFYA [SDC4, P31431], the pKd is reported as “below the threshold”.
With TKGPRGPTRV [SAPCD1, Q5SSQ6] the pKd was 4.2.

These binders were tested against T2, SYNJ2BP, P57105 (assay: holdup assay). Settings: plain residues with an end cap or a label only (N-terminal biotin on a linker: ado-ado).
T2 sequence (P57105 8-110, limits assumed, looked up): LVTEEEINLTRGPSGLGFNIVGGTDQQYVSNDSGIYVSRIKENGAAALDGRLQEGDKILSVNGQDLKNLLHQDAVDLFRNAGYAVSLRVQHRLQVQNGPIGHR
Parameters: key: below the threshold = too weak to quantify, mostly under pKd 3.1 to 4
KKAPTNEFYA [SDC4, P31431] was tested, and the pKd was “below the threshold”.
In the case of TKGPRGPTRV [SAPCD1, Q5SSQ6], the pKd is reported as 4.25.

The binders below were run against T3, GRIP1_5, Q9Y3R0 (assay: holdup assay). Settings: plain residues with an end cap or a label only (N-terminal biotin on a linker: ado-ado).
T3 sequence (Q9Y3R0 568-668, limits assumed, looked up): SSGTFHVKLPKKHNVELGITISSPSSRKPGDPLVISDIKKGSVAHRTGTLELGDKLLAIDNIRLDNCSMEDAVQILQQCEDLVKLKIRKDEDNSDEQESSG
Parameters: key: below the threshold = too weak to quantify, mostly under pKd 3.1 to 4
KKAPTNEFYA [SDC4, P31431] was tested, and the pKd was “below the threshold”.
In the case of TKGPRGPTRV [SAPCD1, Q5SSQ6], the pKd is reported as “below the threshold”.

Each binder was assayed against PDLIM1, O00151 (assay: holdup assay). Settings: plain residues with an end cap or a label only (N-terminal biotin on a linker: ado-ado).
Chain of PDLIM1, O00151 (O00151 1-87): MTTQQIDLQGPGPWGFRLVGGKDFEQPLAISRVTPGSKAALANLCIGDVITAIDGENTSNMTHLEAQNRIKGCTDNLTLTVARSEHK
Parameters: key: below the threshold = too weak to quantify, mostly under pKd 3.1 to 4
KKAPTNEFYA [SDC4, P31431] was tested, and the pKd was “below the threshold”.
TKGPRGPTRV [SAPCD1, Q5SSQ6] was tested, and the pKd was “below the threshold”.

Each binder was assayed against HTRA1, Q92743 (assay: holdup assay). Settings: plain residues with an end cap or a label only (N-terminal biotin on a linker: ado-ado).
Chain of HTRA1, Q92743 (Q92743 360-477): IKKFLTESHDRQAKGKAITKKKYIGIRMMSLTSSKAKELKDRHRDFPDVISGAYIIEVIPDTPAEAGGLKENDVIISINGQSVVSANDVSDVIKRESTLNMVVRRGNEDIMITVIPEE
Parameters: key: below the threshold = too weak to quantify, mostly under pKd 3.1 to 4
KKAPTNEFYA [SDC4, P31431] showed a pKd of 4.41.
TKGPRGPTRV [SAPCD1, Q5SSQ6] was tested, and the pKd was “below the threshold”.

What follows are binders tested against AHNAK1, Q09666 (assay: holdup assay). Settings: plain residues with an end cap or a label only (N-terminal biotin on a linker: ado-ado).
Chain of AHNAK1, Q09666 (Q09666 4-100): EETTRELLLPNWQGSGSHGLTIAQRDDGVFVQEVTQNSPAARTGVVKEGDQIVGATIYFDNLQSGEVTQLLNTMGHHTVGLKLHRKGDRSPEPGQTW
Parameters: key: below the threshold = too weak to quantify, mostly under pKd 3.1 to 4
With KKAPTNEFYA [SDC4, P31431] the pKd was “below the threshold”.
In the case of TKGPRGPTRV [SAPCD1, Q5SSQ6], the pKd is reported as “below the threshold”.

These binders were tested against T4, NHERF3_1, Q5T2W1 (assay: holdup assay). Settings: plain residues with an end cap or a label only (N-terminal biotin on a linker: ado-ado).
T4 sequence (Q5T2W1 4-100, limits assumed, looked up): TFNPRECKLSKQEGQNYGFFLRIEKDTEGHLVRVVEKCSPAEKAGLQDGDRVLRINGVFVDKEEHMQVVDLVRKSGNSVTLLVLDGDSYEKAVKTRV
Parameters: key: below the threshold = too weak to quantify, mostly under pKd 3.1 to 4
KKAPTNEFYA [SDC4, P31431] gave a pKd of 3.79.
TKGPRGPTRV [SAPCD1, Q5SSQ6] was tested, and the pKd was “below the threshold”.

The binders below were run against MAGI1_1, Q96QZ7 (assay: holdup assay). Settings: plain residues with an end cap or a label only (N-terminal biotin on a linker: ado-ado).
Chain of MAGI1_1, Q96QZ7 (Q96QZ7 1-106): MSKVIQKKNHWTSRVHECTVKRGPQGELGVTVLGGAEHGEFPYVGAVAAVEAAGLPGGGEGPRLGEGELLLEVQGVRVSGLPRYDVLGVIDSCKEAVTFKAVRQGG
Parameters: key: below the threshold = too weak to quantify, mostly under pKd 3.1 to 4
KKAPTNEFYA [SDC4, P31431] was tested, and the pKd was “below the threshold”.
With TKGPRGPTRV [SAPCD1, Q5SSQ6] the pKd was “below the threshold”.

The binders below were run against PICK1, Q9NRD5 (assay: holdup assay). Settings: plain residues with an end cap or a label only (N-terminal biotin on a linker: ado-ado).
Chain of PICK1, Q9NRD5 (Q9NRD5 17-115): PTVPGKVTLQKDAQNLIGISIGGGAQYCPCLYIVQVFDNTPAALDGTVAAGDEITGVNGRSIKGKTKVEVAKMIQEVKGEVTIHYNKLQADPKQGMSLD
Parameters: key: below the threshold = too weak to quantify, mostly under pKd 3.1 to 4
In the case of KKAPTNEFYA [SDC4, P31431], the pKd is reported as “below the threshold”.
With TKGPRGPTRV [SAPCD1, Q5SSQ6] the pKd was 4.11.

The binders below were run against GRIP2_5, Q9C0E4 (assay: holdup assay). Settings: plain residues with an end cap or a label only (N-terminal biotin on a linker: ado-ado).
Chain of GRIP2_5, Q9C0E4 (Q9C0E4 544-642): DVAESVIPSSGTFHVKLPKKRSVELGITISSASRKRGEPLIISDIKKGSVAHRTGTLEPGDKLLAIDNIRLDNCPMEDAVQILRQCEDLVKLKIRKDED
Parameters: key: below the threshold = too weak to quantify, mostly under pKd 3.1 to 4
For KKAPTNEFYA [SDC4, P31431], the pKd was “below the threshold”.
In the case of TKGPRGPTRV [SAPCD1, Q5SSQ6], the pKd is reported as “below the threshold”.

These binders were tested against T5, TIAM2, Q8IVF5 (assay: holdup assay). Settings: plain residues with an end cap or a label only (N-terminal biotin on a linker: ado-ado).
T5 sequence (Q8IVF5 885-986, limits assumed, looked up): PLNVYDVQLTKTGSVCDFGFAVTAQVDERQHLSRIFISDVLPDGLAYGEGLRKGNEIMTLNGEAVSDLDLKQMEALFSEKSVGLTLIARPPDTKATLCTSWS
Parameters: key: below the threshold = too weak to quantify, mostly under pKd 3.1 to 4
For KKAPTNEFYA [SDC4, P31431], the pKd was 3.94.
In the case of TKGPRGPTRV [SAPCD1, Q5SSQ6], the pKd is reported as “below the threshold”.

These binders were tested against T6, APBA1_2, Q02410 (assay: holdup assay). Settings: plain residues with an end cap or a label only (N-terminal biotin on a linker: ado-ado).
T6 sequence (Q02410 742-832, limits assumed, looked up): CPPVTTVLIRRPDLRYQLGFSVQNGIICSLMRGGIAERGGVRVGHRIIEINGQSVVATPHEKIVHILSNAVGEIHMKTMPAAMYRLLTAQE
Parameters: key: below the threshold = too weak to quantify, mostly under pKd 3.1 to 4
KKAPTNEFYA [SDC4, P31431] was tested, and the pKd was “below the threshold”.
TKGPRGPTRV [SAPCD1, Q5SSQ6] gave a pKd of 4.47.

These binders were tested against T7, RHPN1, Q8TCX5 (assay: holdup assay). Settings: plain residues with an end cap or a label only (N-terminal biotin on a linker: ado-ado).
T7 sequence (Q8TCX5 508-602, limits assumed, looked up): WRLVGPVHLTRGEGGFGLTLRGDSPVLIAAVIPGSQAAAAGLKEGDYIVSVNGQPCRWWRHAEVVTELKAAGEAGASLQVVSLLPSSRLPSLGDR
Parameters: key: below the threshold = too weak to quantify, mostly under pKd 3.1 to 4
For KKAPTNEFYA [SDC4, P31431], the pKd was “below the threshold”.
In the case of TKGPRGPTRV [SAPCD1, Q5SSQ6], the pKd is reported as “below the threshold”.

The binders below were run against T8, GRIP1_3, Q9Y3R0 (assay: holdup assay). Settings: plain residues with an end cap or a label only (N-terminal biotin on a linker: ado-ado).
T8 sequence (Q9Y3R0 247-346, limits assumed, looked up): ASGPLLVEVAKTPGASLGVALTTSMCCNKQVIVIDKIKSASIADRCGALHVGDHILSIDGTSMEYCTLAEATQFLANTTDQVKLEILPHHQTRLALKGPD
Parameters: key: below the threshold = too weak to quantify, mostly under pKd 3.1 to 4
For KKAPTNEFYA [SDC4, P31431], the pKd was “below the threshold”.
In the case of TKGPRGPTRV [SAPCD1, Q5SSQ6], the pKd is reported as “below the threshold”.

These binders were tested against SNX27, Q96L92 (assay: holdup assay). Settings: plain residues with an end cap or a label only (N-terminal biotin on a linker: ado-ado).
Parameters: key: below the threshold = too weak to quantify, mostly under pKd 3.1 to 4
KKAPTNEFYA [SDC4, P31431] was tested, and the pKd was “below the threshold”.
For TKGPRGPTRV [SAPCD1, Q5SSQ6], the pKd was 4.

The binders below were run against GRID2IP_2, A4D2P6 (assay: holdup assay). Settings: plain residues with an end cap or a label only (N-terminal biotin on a linker: ado-ado).
Chain of GRID2IP_2, A4D2P6 (A4D2P6 272-370): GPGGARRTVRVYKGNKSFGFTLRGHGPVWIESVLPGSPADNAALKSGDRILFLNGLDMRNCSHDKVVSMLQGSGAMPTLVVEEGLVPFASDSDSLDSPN
Parameters: key: below the threshold = too weak to quantify, mostly under pKd 3.1 to 4
KKAPTNEFYA [SDC4, P31431] was tested, and the pKd was “below the threshold”.
TKGPRGPTRV [SAPCD1, Q5SSQ6] gave a pKd of 4.58.

These binders were tested against T9, LNX2_2, Q8N448 (assay: holdup assay). Settings: plain residues with an end cap or a label only (N-terminal biotin on a linker: ado-ado).
T9 sequence (Q8N448 334-432, limits assumed, looked up): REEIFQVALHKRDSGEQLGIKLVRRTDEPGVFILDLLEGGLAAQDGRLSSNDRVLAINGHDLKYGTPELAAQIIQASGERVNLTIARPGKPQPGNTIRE
Parameters: key: below the threshold = too weak to quantify, mostly under pKd 3.1 to 4
In the case of KKAPTNEFYA [SDC4, P31431], the pKd is reported as “below the threshold”.
In the case of TKGPRGPTRV [SAPCD1, Q5SSQ6], the pKd is reported as 3.87.

Each binder was assayed against T10, MPP2, Q14168 (assay: holdup assay). Settings: plain residues with an end cap or a label only (N-terminal biotin on a linker: ado-ado).
T10 sequence (Q14168 180-250, limits assumed, looked up): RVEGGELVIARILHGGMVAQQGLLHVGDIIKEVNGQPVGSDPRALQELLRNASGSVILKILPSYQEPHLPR
Parameters: key: below the threshold = too weak to quantify, mostly under pKd 3.1 to 4
With KKAPTNEFYA [SDC4, P31431] the pKd was “below the threshold”.
For TKGPRGPTRV [SAPCD1, Q5SSQ6], the pKd was “below the threshold”.

What follows are binders tested against T11, APBA1_1, Q02410 (assay: holdup assay). Settings: plain residues with an end cap or a label only (N-terminal biotin on a linker: ado-ado).
T11 sequence (Q02410 651-752, limits assumed, looked up): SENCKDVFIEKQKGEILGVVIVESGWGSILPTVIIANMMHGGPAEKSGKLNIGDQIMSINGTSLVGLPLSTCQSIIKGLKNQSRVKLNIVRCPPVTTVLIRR
Parameters: key: below the threshold = too weak to quantify, mostly under pKd 3.1 to 4
With KKAPTNEFYA [SDC4, P31431] the pKd was “below the threshold”.
TKGPRGPTRV [SAPCD1, Q5SSQ6] was tested, and the pKd was “below the threshold”.

These binders were tested against GRIP2_4, Q9C0E4 (assay: holdup assay). Settings: plain residues with an end cap or a label only (N-terminal biotin on a linker: ado-ado).
Chain of GRIP2_4, Q9C0E4 (Q9C0E4 446-548): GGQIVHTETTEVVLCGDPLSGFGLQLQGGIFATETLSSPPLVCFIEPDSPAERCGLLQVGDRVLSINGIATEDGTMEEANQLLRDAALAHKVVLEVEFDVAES
Parameters: key: below the threshold = too weak to quantify, mostly under pKd 3.1 to 4
In the case of KKAPTNEFYA [SDC4, P31431], the pKd is reported as “below the threshold”.
With TKGPRGPTRV [SAPCD1, Q5SSQ6] the pKd was “below the threshold”.

These binders were tested against T12, DLG3_3, Q92796 (assay: holdup assay). Settings: plain residues with an end cap or a label only (N-terminal biotin on a linker: ado-ado).
T12 sequence (Q92796 374-475, limits assumed, looked up): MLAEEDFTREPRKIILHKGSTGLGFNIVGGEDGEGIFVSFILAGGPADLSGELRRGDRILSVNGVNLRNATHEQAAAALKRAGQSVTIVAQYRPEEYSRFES
Parameters: key: below the threshold = too weak to quantify, mostly under pKd 3.1 to 4
For KKAPTNEFYA [SDC4, P31431], the pKd was “below the threshold”.
TKGPRGPTRV [SAPCD1, Q5SSQ6] showed a pKd of 4.44.

What follows are binders tested against IL16_3, Q14005 (assay: holdup assay). Settings: plain residues with an end cap or a label only (N-terminal biotin on a linker: ado-ado).
Chain of IL16_3, Q14005 (Q14005 1107-1207): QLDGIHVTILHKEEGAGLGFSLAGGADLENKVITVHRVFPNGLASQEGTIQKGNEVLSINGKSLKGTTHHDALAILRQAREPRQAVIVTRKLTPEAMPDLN
Parameters: key: below the threshold = too weak to quantify, mostly under pKd 3.1 to 4
For KKAPTNEFYA [SDC4, P31431], the pKd was “below the threshold”.
For TKGPRGPTRV [SAPCD1, Q5SSQ6], the pKd was “below the threshold”.

What follows are binders tested against DLG4_1, P78352 (assay: holdup assay). Settings: plain residues with an end cap or a label only (N-terminal biotin on a linker: ado-ado).
Chain of DLG4_1, P78352 (P78352 62-152): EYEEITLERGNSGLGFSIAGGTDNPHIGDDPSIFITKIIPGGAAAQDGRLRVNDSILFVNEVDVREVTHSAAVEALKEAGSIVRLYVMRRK
Parameters: key: below the threshold = too weak to quantify, mostly under pKd 3.1 to 4
With KKAPTNEFYA [SDC4, P31431] the pKd was “below the threshold”.
TKGPRGPTRV [SAPCD1, Q5SSQ6] was tested, and the pKd was 4.48.

The binders below were run against Inadl_8, Q8NI35 (assay: holdup assay). Settings: plain residues with an end cap or a label only (N-terminal biotin on a linker: ado-ado).
Chain of Inadl_8, Q8NI35 (Q8NI35 1425-1530): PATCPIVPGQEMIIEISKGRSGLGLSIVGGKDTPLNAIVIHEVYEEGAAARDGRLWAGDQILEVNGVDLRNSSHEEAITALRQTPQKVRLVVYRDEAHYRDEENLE
Parameters: key: below the threshold = too weak to quantify, mostly under pKd 3.1 to 4
For KKAPTNEFYA [SDC4, P31431], the pKd was “below the threshold”.
For TKGPRGPTRV [SAPCD1, Q5SSQ6], the pKd was 5.64.
